Biological target: AD-CaM (Calmodulin, encoded by the CALM2 gene, fused to the activation domain) (human, UniProt P0DP24 1-149)
Experiment: yeast two-hybrid, HIS3 and LacZ reporters

binding result: no binding
B1: DB-Q2C R353G mutant (other, not shown: small tags and cut ends)
chain: KVQEQHRQKHFEKRRNPAAGLIQSAWRFYATNLSGTDLHSTWQYYERTVTVPMYSSQTQTYGASRLIPPLNQLELLRNLKSKSGLAFRKDPPPEPSPSQKVSLKDRVFSSPRGVAAKGKGSPQAQTVRRSPSADQSLEDSPSKVPKSWSFGDRSRARQAFRIKGAASRQNSEEASLPGEDIVDDKSCPCEFVTEDLTPGLKVSIRAVCVMRFLVSKRKFKESLRPYDVMDVIEQYSAGHLDMLSRIKSLQSRVDQIVGRGPAITDKDRTKGPAEAELPEDPSMMGRLGKVEKQVLSMEKKLDFLVNIYMQRMGIPPTETEAYFGAKEPEPAPPYHSPEDSREHVDRHGCIVKIVRSSSSTGQKNFSAPPAAPPVQCPPSTSWQPQSHPRQGHGTSPVGDHGSLVRIPPPPAHERSLSAYGGGNRASMEFLRQEDTPGCRPPEGTLRDSDTSISIPSVDHEELERSFSGFSISQSKENLDALNSCYAAVAPCAKVRPYIAEGESDTDSDLCTPCGPPPRSATGEGPFGDVGWAGPRK
notes: Only the intracellular C-terminal region stood in the bait, made with the same primers as the wt construct; also called R353G KCNQ2 mutant

Reference: US20090081724A1 (BIONOMICS, published 2009)
